Consider 37 molecules from publication PMC10786891, “Massively parallel profiling of RNA-targeting CRISPR-Cas13d”.

Sequences and labels used below:
T1: EsCas13d, nuclease-dead (Eubacterium siraeum, UniProt B0MS50, R295A;H300A;R849A;H854A)
T1 sequence: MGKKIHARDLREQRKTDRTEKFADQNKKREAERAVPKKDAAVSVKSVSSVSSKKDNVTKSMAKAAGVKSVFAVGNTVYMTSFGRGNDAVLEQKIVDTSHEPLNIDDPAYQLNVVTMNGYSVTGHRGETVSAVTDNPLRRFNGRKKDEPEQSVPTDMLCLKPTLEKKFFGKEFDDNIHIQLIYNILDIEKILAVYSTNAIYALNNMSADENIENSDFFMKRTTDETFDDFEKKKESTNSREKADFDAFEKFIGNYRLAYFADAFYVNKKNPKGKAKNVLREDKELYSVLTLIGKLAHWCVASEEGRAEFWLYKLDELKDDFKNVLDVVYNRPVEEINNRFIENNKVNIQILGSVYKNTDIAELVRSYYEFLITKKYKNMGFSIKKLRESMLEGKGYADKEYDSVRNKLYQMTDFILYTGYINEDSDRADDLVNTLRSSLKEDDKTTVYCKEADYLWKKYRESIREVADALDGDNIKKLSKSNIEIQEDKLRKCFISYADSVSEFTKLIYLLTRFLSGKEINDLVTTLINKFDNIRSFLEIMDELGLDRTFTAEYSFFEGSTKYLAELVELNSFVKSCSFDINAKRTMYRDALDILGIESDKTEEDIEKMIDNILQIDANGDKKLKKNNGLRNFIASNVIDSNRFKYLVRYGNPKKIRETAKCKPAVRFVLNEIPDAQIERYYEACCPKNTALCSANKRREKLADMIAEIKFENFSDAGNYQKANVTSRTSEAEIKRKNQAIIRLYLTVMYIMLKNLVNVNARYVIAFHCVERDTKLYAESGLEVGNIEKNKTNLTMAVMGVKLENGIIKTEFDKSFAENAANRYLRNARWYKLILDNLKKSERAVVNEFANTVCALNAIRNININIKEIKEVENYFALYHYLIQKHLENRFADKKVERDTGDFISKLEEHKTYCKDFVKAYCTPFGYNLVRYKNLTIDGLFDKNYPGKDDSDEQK

B1: target 1 MT 5'PFS CCU 3'PFS AAU (mixed)
RNA 1: CACCCGUGCAAAAAUGCAGGGGUCUAAAACUGAGCGGAUAACCUCUCUAUGG
RNA 2: GGGAAUGGAUCCACAUCUACGAAUUCCCUCCAUAGAGAGGUUAUCCGCUCAAAUAGAUCGGAAGAGCACACGU
B2: target 1 MT 5'PFS GAC 3'PFS UUC (mixed)
RNA 1: B1 RNA 1
RNA 2: B1 RNA 2 with C27G, C28A, U29C, A52U, A53U, U54C
B3: target 1 MT 5'PFS GUA 3'PFS GGC (mixed)
RNA 1: B1 RNA 1
RNA 2: B1 RNA 2 with C27G, C28U, U29A, A52G, A53G, U54C
B4: target 1 MT 5'PFS GCA 3'PFS UAA (mixed)
RNA 1: B1 RNA 1
RNA 2: B1 RNA 2 with C27G, U29A, A52U, U54A
B5: target 1 MT 5'PFS GGA 3'PFS UCA (mixed)
RNA 1: B1 RNA 1
RNA 2: B1 RNA 2 with C27G, C28G, U29A, A52U, A53C, U54A
B6: target 1 G15C,A16U (mixed)
RNA 1: B1 RNA 1
RNA 2: B1 RNA 2 with C27G, C28U, U29A, A36U, G37C, A52C, A53C, U54G
B7: target 1 MT 5'PFS GCA 3'PFS UAC (mixed)
RNA 1: B1 RNA 1
RNA 2: B1 RNA 2 with C27G, U29A, A52U, U54C
B8: target 1 MT 5'PFS AGG 3'PFS UUC (mixed)
RNA 1: B1 RNA 1
RNA 2: B1 RNA 2 with C27A, C28G, U29G, A52U, A53U, U54C
B9: target 1 MT 5'PFS GUG 3'PFS AAU (mixed)
RNA 1: B1 RNA 1
RNA 2: B1 RNA 2 with C27G, C28U, U29G
B10: target 1 MT 5'PFS GGA 3'PFS UCU (mixed)
RNA 1: B1 RNA 1
RNA 2: B1 RNA 2 with C27G, C28G, U29A, A52U, A53C
B11: target 1 MT 5'PFS GAG 3'PFS AGA (mixed)
RNA 1: B1 RNA 1
RNA 2: B1 RNA 2 with C27G, C28A, U29G, A53G, U54A
B12: target 1 MT 5'PFS GCU 3'PFS UUU (mixed)
RNA 1: B1 RNA 1
RNA 2: B1 RNA 2 with C27G, A52U, A53U
B13: target 1 MT 5'PFS GAC 3'PFS UUG (mixed)
RNA 1: B1 RNA 1
RNA 2: B1 RNA 2 with C27G, C28A, U29C, A52U, A53U, U54G
B14: target 1 MT 5'PFS GUA 3'PFS GGG (mixed)
RNA 1: B1 RNA 1
RNA 2: B1 RNA 2 with C27G, C28U, U29A, A52G, A53G, U54G
B15: target 1 MT 5'PFS GUG 3'PFS AAA (mixed)
RNA 1: B1 RNA 1
RNA 2: B1 RNA 2 with C27G, C28U, U29G, U54A
B16: target 1 insG 3' of 10,insA 3' of 7 (mixed)
RNA 1: B1 RNA 1
RNA 2: GGGAAUGGAUCCACAUCUACGAAUUCGUACCAUAGAGAGGUUGAUCACGCUCACCGAGAUCGGAAGAGCACACGU
B17: target 1 MT 5'PFS GCU 3'PFS UUA (mixed)
RNA 1: B1 RNA 1
RNA 2: B1 RNA 2 with C27G, A52U, A53U, U54A
B18: target 1 MT 5'PFS GUG 3'PFS AAC (mixed)
RNA 1: B1 RNA 1
RNA 2: B1 RNA 2 with C27G, C28U, U29G, U54C
B19: target 1 MT 5'PFS GGA 3'PFS CUC (mixed)
RNA 1: B1 RNA 1
RNA 2: B1 RNA 2 with C27G, C28G, U29A, A52C, A53U, U54C
B20: target 1 MT 5'PFS GUA 3'PFS GGU (mixed)
RNA 1: B1 RNA 1
RNA 2: B1 RNA 2 with C27G, C28U, U29A, A52G, A53G
B21: target 1 MT 5'PFS CAG 3'PFS CGU (mixed)
RNA 1: B1 RNA 1
RNA 2: B1 RNA 2 with C28A, U29G, A52C, A53G
B22: target 1 MT 5'PFS GUA 3'PFS UGU (mixed)
RNA 1: B1 RNA 1
RNA 2: B1 RNA 2 with C27G, C28U, U29A, A52U, A53G
B23: target 1 insU 3' of 13,insA 3' of 13 (mixed)
RNA 1: B1 RNA 1
RNA 2: B16 RNA 2 with G40U, U41A, U42G, G43U, A44U, U45A, C46U, A47C
B24: target 1 MT 5'PFS GGA 3'PFS UCG (mixed)
RNA 1: B1 RNA 1
RNA 2: B1 RNA 2 with C27G, C28G, U29A, A52U, A53C, U54G
B25: target 1 MT 5'PFS GUG 3'PFS AAG (mixed)
RNA 1: B1 RNA 1
RNA 2: B1 RNA 2 with C27G, C28U, U29G, U54G
B26: target 1 MT 5'PFS GCU 3'PFS UUC (mixed)
RNA 1: B1 RNA 1
RNA 2: B1 RNA 2 with C27G, A52U, A53U, U54C
B27: target 1 MT 5'PFS CAA 3'PFS UCG (mixed)
RNA 1: B1 RNA 1
RNA 2: B1 RNA 2 with C28A, U29A, A52U, A53C, U54G
B28: target 1 MT 5'PFS GAG 3'PFS AGU (mixed)
RNA 1: B1 RNA 1
RNA 2: B1 RNA 2 with C27G, C28A, U29G, A53G
B29: target 1 MT 5'PFS GCA 3'PFS UAU (mixed)
RNA 1: B1 RNA 1
RNA 2: B1 RNA 2 with C27G, U29A, A52U
B30: target 1 MT 5'PFS GGA 3'PFS CUA (mixed)
RNA 1: B1 RNA 1
RNA 2: B1 RNA 2 with C27G, C28G, U29A, A52C, A53U, U54A
B31: target 1 MT 5'PFS GUA 3'PFS GGA (mixed)
RNA 1: B1 RNA 1
RNA 2: B1 RNA 2 with C27G, C28U, U29A, A52G, A53G, U54A
B32: target 1 MT 5'PFS GAC 3'PFS UUA (mixed)
RNA 1: B1 RNA 1
RNA 2: B1 RNA 2 with C27G, C28A, U29C, A52U, A53U, U54A
B33: target 1 MT 5'PFS AGG 3'PFS UUG (mixed)
RNA 1: B1 RNA 1
RNA 2: B1 RNA 2 with C27A, C28G, U29G, A52U, A53U, U54G
B34: target 1 MT 5'PFS GAC 3'PFS UUU (mixed)
RNA 1: B1 RNA 1
RNA 2: B1 RNA 2 with C27G, C28A, U29C, A52U, A53U
B35: target 1 MT 5'PFS GGA 3'PFS UCC (mixed)
RNA 1: B1 RNA 1
RNA 2: B1 RNA 2 with C27G, C28G, U29A, A52U, A53C, U54C
B36: target 1 MT 5'PFS GCU 3'PFS UUG (mixed)
RNA 1: B1 RNA 1
RNA 2: B1 RNA 2 with C27G, A52U, A53U, U54G
B37: target 1 MT 5'PFS AUG 3'PFS CCC (mixed)
RNA 1: B1 RNA 1
RNA 2: B1 RNA 2 with C27A, C28U, U29G, A52C, A53C, U54C

Where a chain is given by its changes, count along the chain named. In names and notes the source's numbering stands.

The target in this data set is T1, EsCas13d, nuclease-dead. In words: crRNA (strand 1, pre-loaded); Mg2+; 40 mM Tris-HCl pH 7.5, 150 mM NaCl, 6 mM MgCl2, 1 mM DTT, 0.1% Tween-20, 0.2 mg/ml BSA; 25 C; 10 min per concentration, then washed. The following applies: tags: His6-TwinStrep-SUMO cleaved; N-terminal SNAP kept (SNAP-Surface 488); label: 3' end held by stalled T7 RNA polymerase.
As usually defined, the Kd is a measure of binding affinity in units of concentration. A lower Kd goes with tighter binding. In the case of B1, binding was put at a Kd of 16.7 ± 4.65 nM.
The figure for B2 is 14.1 ± 4.25 nM; for B3 it is 7.25 ± 0.95 nM; for B4 it is 19 ± 6.5 nM.
The figure for B5 is 17.9 ± 5.7 nM; for B6 it is 47 ± 4 nM.
The molecule B7 gave a Kd of 14 ± 2.55 nM.
In turn, B8 had a Kd of 33 ± 11 nM.
The molecule B9 had a Kd of 22.1 ± 1.75 nM.
The figure for B10 is 13.5 ± 2.5 nM; for B11 it is 37 ± 13 nM; for B12 it is 24.1 ± 3.8 nM.
Consider B13, for which the affinity, expressed as Kd, was 14.5 ± 4 nM.
The figure for B14 is 30.6 ± 3.7 nM; for B15 it is 30.3 ± 2.5 nM; for B16 it is 15.3 ± 0.6 nM.
Take B17: the Kd turned out to be 22 ± 5 nM.
B18 showed a Kd of 23.9 ± 2.9 nM.
Molecule B19 returned a Kd of 47 ± 17.5 nM.
On to B20, for which the Kd was found to be 20.7 ± 2 nM.
As to B21, the Kd turned out to be 29.5 ± 10 nM.
B22 came in with a Kd of 19.1 ± 0.95 nM.
B23 returned a Kd of 4.35 ± 0.17 nM.
The molecule B24 yielded a Kd of 10.8 ± 1.2 nM.
The figure for B25 is 23.1 ± 1.45 nM; for B26 it is 36.5 ± 9 nM; for B27 it is 12.2 ± 3.6 nM.
B28 came in with a Kd of 47.5 ± 16.5 nM.
B29: binding was put at a Kd of 10.8 ± 1.45 nM.
The figure for B30 is 27 ± 6.5 nM; for B31 it is 15.8 ± 2.45 nM; for B32 it is 13.2 ± 4.3 nM.
Molecule B33 displayed a Kd of 40.5 ± 9.5 nM.
B34 had a Kd of 11 ± 4.5 nM.
In turn, B35 had a dissociation constant (Kd) of 23 ± 7 nM.
B36 registered an equilibrium dissociation constant (Kd) of 61 ± 23.5 nM.
B37 yielded a Kd of about 40.5 nM.
